In this experiment the target is T1, his-tagged B7-H3 (UniProt Q5ZPR3-2 29-245, limits assumed).
T1 construct: also called CD276; not shown: His tag
T1 sequence (looked up): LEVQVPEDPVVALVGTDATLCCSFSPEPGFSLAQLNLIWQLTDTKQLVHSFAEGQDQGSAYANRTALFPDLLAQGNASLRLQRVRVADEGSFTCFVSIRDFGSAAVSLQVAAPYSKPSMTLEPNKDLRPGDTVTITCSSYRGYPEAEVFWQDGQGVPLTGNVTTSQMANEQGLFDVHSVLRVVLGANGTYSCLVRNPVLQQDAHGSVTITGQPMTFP
The experiment can be described thus: SPR, Carterra LSA; binder captured by anti-human Fc, his-tagged B7-H3 injected. On the procedure:
Binding affinities of anti-B7-H3 antibodies to B7-H3 were measured by Surface Plasmon Resonance (SPR) on a Carterra LSA instrument. Goat anti-human Fc antibody was amine coupled to a HC30M chip. ScFv-Fc supernatants were diluted 30-fold with HBSTE and were captured by the anti-human Fc coupled HC30M chip. A 1:2 dilution series of his-tagged B7-H3, starting at 400 nM, was injected onto the chip for binding. Data was analyzed using the Carterra TM Kinetics software.
On the technique in general: Surface plasmon resonance follows binding to a sensor surface in real time, without labels.

Numbering of substitutions follows the chain as printed.

B1: 40511p1.2.B5 scFv-Fc (scFv, V domains shown)
VH: DVQLVESGGGVVRPGESLRLSCAASGFTFSSYAMSWVRQAPGEGLEWVSSISGSGGSTLYADSVKGRFTISRDSSNNSLYLQMNSLRAEDTAVYYCAKARNNFFDYWGLGTLVTVSS
VL: EIVLTQSPGTLTLSPGERATLSCRASRSILTSLAWYQQRPGQTPRLLIYGANSRATGIPDRFSGSGSGTEFTLTISSLQSEDFAVYYCQQYYDWLTITFGGGTKVEIK
What is called Kd is a measure of binding affinity in units of concentration. Lower therefore signals higher affinity. Usually koff stands for the first-order rate constant of dissociation. High values mean fast dissociation, low ones slow dissociation. In general, kon refers to the second-order rate constant of association. Higher therefore signals fast association. In the case of B1, the Kd came out at 61.2 nM, the koff was found to be 0.05 s⁻¹ and the kon came to 795000 M⁻¹ s⁻¹.

B2: 40633p1.1.A11 scFv-Fc (scFv, V domains shown)
VH: EVQLLESGGDLVQPGGSLRLSCAASGFTFNTYWMNWVRQAPGKGLEWVAGINSKGGVTYYADSVKGRFTISRDNSKNTLYLQMNSLRAEDTAVYYCADWNDYDIMDVWGQGTTVTVSS
VL: QSVLTQPPSASGTPGQTITISCSGSSSNVGRRTVNWYQQLPGTAPKLLIYTNAQRPSGVPDRFSGSKSGTSASLAISGLQSEDEADYYCATWDDSLNAWVFGGGTKLTVL
In turn, B2 showed a Kd of 17.4 nM, a koff of 0.01 s⁻¹ and a kon of 714000 M⁻¹ s⁻¹.

B3: 40633p1.1.B3 scFv-Fc (scFv, V domains shown)
VH: EVQLLESGGGLVQPGGSLRLSCAASGFTVSYYGMSWVRQAPGKGLEWVSAIKQDGSEKYYADSVKGRFTISRDNSKNTLYLQMNSLRAEDTAVYYCARHWNDYSNAMNVWGQGTTVTVSS
VL: B2 VL with T17R, I18V, S26T, V29I, R32E, T33S, N35Y, N52I, A53D, A90G
notes: Tested as scFv-Fc supernatant
Regarding B3, the Kd worked out at 6.42 nM and the kon turned out to be 360000 M⁻¹ s⁻¹.

B4: 40633p1.1.E4 scFv-Fc (scFv, V domains shown)
VH: B2 VH with D10G, N30S, T31S, N35S, A49S, N52S, K54S, G56S, V57A, D98R
VL: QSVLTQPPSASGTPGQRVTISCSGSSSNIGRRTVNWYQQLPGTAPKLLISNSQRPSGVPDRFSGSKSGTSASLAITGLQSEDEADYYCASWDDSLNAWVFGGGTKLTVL
notes: Tested as scFv-Fc supernatant
B4 had a Kd of 3.95 nM and a kon of 523000 M⁻¹ s⁻¹.

B5: 40633p1.1.C11 scFv-Fc (scFv, V domains shown)
VH: B2 VH with D10G, N30S, T31S, N35S, S53R, K54N, V57T, D98R
VL: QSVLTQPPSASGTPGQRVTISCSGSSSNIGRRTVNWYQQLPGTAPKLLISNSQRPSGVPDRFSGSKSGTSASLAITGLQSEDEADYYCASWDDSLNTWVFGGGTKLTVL
notes: Tested as scFv-Fc supernatant
B5 displayed a Kd of 1.03 nM and a kon of 481000 M⁻¹ s⁻¹.

B6: 40633p1.2.D7 scFv-Fc (scFv, V domains shown)
VH: B2 VH with D10S, N30S, T31S, N35S, A49S, N52S, K54S, G56S, V57A, D98R
VL: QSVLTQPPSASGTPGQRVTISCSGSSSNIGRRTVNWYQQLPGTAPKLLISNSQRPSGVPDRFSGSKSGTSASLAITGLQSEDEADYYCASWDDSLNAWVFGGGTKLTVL
notes: Tested as scFv-Fc supernatant
Molecule B6 had a dissociation constant Kd of 5.69 nM and a kon of 402000 M⁻¹ s⁻¹.

B7: 40633p1.1.D11 scFv-Fc (scFv, V domains shown)
VH: EVQLLESGGGLVQPGGSLRLSCAASGFTFRSYAMSWVRQAPGKGLEWVAYIGSSGGTTYYADSVKGRFTISRDNSKNTLYLQMNSLRAEDTAVYYCVKESYYYMDVWGQGTTVTVSS
VL: QSVLTQPPSASGTPGQRVTISCSATISNIDINRVSWYQQLPGTAPKLLIFNSQRPSGVPDRFSGSKSGTSASLAISGLQSEDEADYYCATWDDSLNSWVFGGGTKLTVL
notes: Tested as scFv-Fc supernatant
B7 displayed a Kd of 13.2 nM and a kon of 277000 M⁻¹ s⁻¹.

B8: 40633p1.1.B12 scFv-Fc (scFv, V domains shown)
VH: EVQLLESGGGLLQPGGSLRLSCAASGFSFSSYGMHWVRQAPGKGLEWVAAINSDGSRIYYADSVKGRFTISRDNSKNTLYLQMNSLRAEDTAVYYCTKYYYHYAMDVWGQGTTVTVSS
VL: QSVLTQPPSASGTPGQRVTISCSGSRSDIGATTVNWYQQLPGTAPKLLTYQSHLRPSGVPDRFSGSKSGTSASLAISGLQSEDEADYYCASWDASLNTWVFGGGTKLTVL
B8 displayed a Kd of 20.2 nM, a koff of 0.01 s⁻¹ and a kon of 349000 M⁻¹ s⁻¹.

B9: 40579p1.C2 scFv-Fc (scFv, V domains shown)
VH: EVQLLESGGDLVQPGGSLRLSCAASGFNFSSYWMSWVRQAPGKGLEWVSGISISYGGNAYYADSVKGRFTVSRDNSKNTLYLQMNSLRAEDTAVYYCGRDRSPYQYRSMDVWGQGTTVTVSS
VL: EIVLTQSPATLSVSPGERATFSCRASQTIGNKLAWYQQKPGQAPRLLIFSASTRATDIPDRFSGSGSGTDFTLTISSLQSEDFAVYYCQQYNNWPPLTFGGGTKVEIK
notes: Tested as scFv-Fc supernatant
Molecule B9 displayed a Kd of 9.11 nM and a kon of 452000 M⁻¹ s⁻¹.

B10: 40579p1.D8 scFv-Fc (scFv, V domains shown)
VH: B9 VH with D10G, N28T, S31D, W33Y, G50S, N58T, A59T, V71I, G98A, Y106C
VL: EIVLTQSPGTLSLSPGERATLSCRASQSIRSDLAWYQQKPGQAPRLLIYNTVTRATGVPDRFSGSGSGTEFTLTISSLQSEDFAVYYCQQYNSWPPLTFGGGTKVEIK
notes: Tested as scFv-Fc supernatant
In turn, B10 gave a Kd of 44.2 nM and an association rate constant (kon) of 25700 M⁻¹ s⁻¹.

B11: 40579p1.F7 scFv-Fc (scFv, V domains shown)
VH: B9 VH with D10G, N28T, S31D, W33Y
VL: EIVLTQSPGTLSLSPGERATLTCRASQSVGDFLAWYQQKPGQAPRLLIYGASTRAAGIPARFRGSGSGTDFTLTISSLQSEDFAVYYCQQYKNWPPLTFGGGTKVEIK
notes: Tested as scFv-Fc supernatant
In the case of B11, the Kd came out at 212 nM, the koff was determined as 0.02 s⁻¹ and the kon was found to be 108000 M⁻¹ s⁻¹.

B12: 40579p1.B8 scFv-Fc (scFv, V domains shown)
VH: EVQLLESGGGLVQPGGSLRLSCAASGFTFSDYYMSWVRQAPGKGLEWVSGISMSSTIYYADSVKGRFTISRDNSKNTLYLQMNSLRAEDTAVYYCARHRSPYQYRSMDVWGQGTTVTVSS
VL: EIVLTQSPGTLSLSPGERATLSCRASQSVNSKLAWYQQKPGQPPSLLIYDASRRATGIPDRFSGSGSGTEFTLTISSLQSEDFAVYYCQQYNNWPPLTFGGGTKVEIK
For the molecule B12, the Kd amounted to 3.1 nM and the kon was determined as 622000 M⁻¹ s⁻¹.

B13: 40579p1.G1 scFv-Fc (scFv, V domains shown)
VH: B9 VH with D10G
VL: B10 VL with N50G, T51A, V52S, T53S, V58I, D60A, S93N
notes: Tested as scFv-Fc supernatant
In turn, B13 registered a Kd of 6.75 nM and a kon of 260000 M⁻¹ s⁻¹.

B14: 40579p1.H7 scFv-Fc (scFv, V domains shown)
VH: B9 VH
VL: B10 VL with N50G, T51A, V52S, T53S, V58I, D60A, S93N
notes: Tested as scFv-Fc supernatant
Turning to B14, binding was put at a Kd of 5.57 nM and the kon was determined as 281000 M⁻¹ s⁻¹.

B15: 40579p1.E5 scFv-Fc (scFv, V domains shown)
VH: EVQLLESGGGLVQPGGSLRLSCAASGFTFSDDWMTWVRQAPGKGLEWVSAINWNGNSTHYADSVKGRFTVSRDNSKNTLYLQMNSLRAEDTAVYYCAKSRTTYYSSMDVWGQGTTVTVSS
VL: EIVLTQSPGTLSLSPGERATLSCRASQTVGSYLAWYQQKPGQAPRLLIYGASSRATGIPARFSGSGSGTDFTLTISSLQSEDFAVYYCQHYYDWPPYSFGGGTKVEIK
B15 came in with a Kd of 2.51 nM and an association rate constant (kon) of 493000 M⁻¹ s⁻¹.

B16: 40579p1.H6 scFv-Fc (scFv, V domains shown)
VH: EVQLLESGGGLVQPGGSLRLSCAASGFTVNNAWMSWVRQAPGKGLEWVSAISYGGSIYYADSVKGRFTISRDNSKNTLYLQMNSLRAEDTAVYYCAKHRSTTYNGMDVWGQGTTVTVSS
VL: B11 VL with T22S, D31S, S52N, A60D, S67N, K92Y, N93D
In turn, B16 showed a Kd of 7.72 nM and a kon of 252000 M⁻¹ s⁻¹.

B17: 40633p1.1.A6 scFv-Fc (scFv, V domains shown)
VH: EVQLLESGGGLVQPGGSLRLSCAASGFSFSNYDMSWVRQAPGKGLEWVAGIRSGSRTYYADSVKGRFTISRDNSKNTLYLQMNSLRAEDTATYYCGRYFNMDVWGQGTTVTVSS
VL: QSVLTQPPSASGTPGQRVTISCSGSTFNIGTNLVHWYQQLPGTAPKLLIYLTDRRPSGVPDRFSGSKSGTSASLAISGLQSEDEANYYCATWDDSLNSFLFGGGTKLTVL
In turn, B17 had a Kd of 1 nM and a kon of 166000 M⁻¹ s⁻¹.

B18: 40633p1.2.A10 scFv-Fc (scFv, V domains shown)
VH: B3 VH with A50V, K58E, A106G
VL: QSVLTQPPSASGTPGQRVTISCSGSTSNVGDRYVYWYQQLPGTAPKLLIYLDDQRPSGVPDRFSGSKSGTSASLAISGLQSEDEADYYCASWDASLNGWVFGGGTKLTVL
notes: Tested as scFv-Fc supernatant
For the molecule B18, the dissociation constant Kd was found to be 1.44 nM and the kon was found to be 422000 M⁻¹ s⁻¹.

B19: 40633p1.1.E3 scFv-Fc (scFv, V domains shown)
VH: B3 VH
VL: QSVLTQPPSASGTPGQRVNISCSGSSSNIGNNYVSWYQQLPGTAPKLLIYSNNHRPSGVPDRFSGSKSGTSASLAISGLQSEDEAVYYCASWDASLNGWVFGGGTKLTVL
notes: Tested as scFv-Fc supernatant
B19 came in with a Kd greater than 400 nM, an off-rate (koff) of 0.65 s⁻¹ and a kon of 2030 M⁻¹ s⁻¹.

B20: 40633p1.1.A7 scFv-Fc (scFv, V domains shown)
VH: B3 VH
VL: B18 VL with V29I, D31R, R32E, Y33S, L51T, D52I, D86V
notes: Tested as scFv-Fc supernatant
As to B20, binding was characterised by a dissociation constant (Kd) of 3.62 nM and the kon amounted to 371000 M⁻¹ s⁻¹.

B21: 40633p1.2.E1 scFv-Fc (scFv, V domains shown)
VH: B3 VH with G9R, A50V, K58E, A106G
VL: B18 VL
notes: Tested as scFv-Fc supernatant
B21: binding was characterised by a dissociation constant (Kd) of 8 nM and the kon is 124000 M⁻¹ s⁻¹.

B22: 40633p1.1.G11 scFv-Fc (scFv, V domains shown)
VH: B3 VH with A50V, K58E, L86P, A106G
VL: B18 VL
notes: Tested as scFv-Fc supernatant
Molecule B22 showed a Kd of 1.48 nM and a kon of 434000 M⁻¹ s⁻¹.

B23: 40633p1.2.C3 scFv-Fc (scFv, V domains shown)
VH: B3 VH with G111E
VL: B18 VL with T26N, D31G, R32N, Y35S, L51R, D52N, D53S, D86V
notes: Tested as scFv-Fc supernatant
As to B23, the Kd came to 20.7 nM and the kon came to 33500 M⁻¹ s⁻¹.

B24: 40633p1.2.F3 scFv-Fc (scFv, V domains shown)
VH: B3 VH with A50V, K58E, A106G
VL: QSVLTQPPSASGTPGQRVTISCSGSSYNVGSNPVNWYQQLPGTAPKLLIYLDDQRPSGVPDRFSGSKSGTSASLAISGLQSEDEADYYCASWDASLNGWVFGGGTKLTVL
notes: Tested as scFv-Fc supernatant
For the molecule B24, binding was put at a Kd of 27.6 nM, the koff is 0.01 s⁻¹ and the kon amounted to 307000 M⁻¹ s⁻¹.

These data come from patent US20260008852A1 (CRYSTAL BIOSCIENCE, published 2026).
